Blank lines part the entries; values can stand above or below the binder they belong to.
Key:
[1] = target: T1, human Siglec-8 (full-length, on transfected CHO or 293 cells, or native on human eosinophils) (human, UniProt Q9NYZ4 17-499); test: flow cytometry, CHO cells transiently transfected with full-length human Siglec-8 (apparent affinity)
Protocol: (§1) Binding of the anti-human Siglec-8 VHHs, B12, D1, E2, and G2, as a bivalent VHH-hIgG1-xELL-Fc (VHH of SEQ ID NO: 49, 55, 61, and 1, respectively linked to an Fe xELL via linker 2, these constructs are also designated cx8982, cx8983, cx8984, and cx10382, respectively) was determined by flow cytometry using CHO cells that had been transiently transfected with full-length human Siglec-8. Binding specificity was assessed using untransfected (UT) CHO cells as a control. For the binding assays, 50,000 Siglec-8 CHOs or UT CHOs were seeded in a 96-well plate and a titration of anti-Siglec8-VHH-xELL was added in FACS Buffer (PBS 1% BSA, 0.1% NaN3 pH 7.4) incubating for 30 minutes at 4° C. After washing, the plates were incubated with an A647-conjugated anti-human Fcγ specific secondary antibody (Jackson ImmunoResearch) diluted 1:2000 in FACS buffer for 30 minutes at 4° C. The plates were washed, and binding was determined by flow cytometry quantitating anti-human A647 mean fluorescent intensity using an Intellicyt iQue Plus.
(§2) The binding was specific to Siglec-8 as there was no detectable binding to untransfected CHO cells for any of the tested constructs.

[2] = target: T1, human Siglec-8 (full-length, on …); test: flow cytometry on human eosinophils (CD16- CCR3+) from whole blood; anti-human AF647 secondary; MFI
Description: To determine if increasing the valency of Siglec-8 antibodies could enhance agonist activity, the parental llama B12, D1 and E2 VHH sequences were used to generate tetravalent (Tet-B12 (cx8467; SEQ ID NO:50 linked to an Fe), Tet-D1 (cx8469; SEQ ID NO:56 linked to an Fe), and Tet-E2 (cx8463; SEQ ID NO:62 linked to an Fc)) and hexavalent (Hex-B12 (cx8466; SEQ ID NO:51 linked to an Fe), Hex-D1 (cx8523; SEQ ID NO:57 linked to an Fe), and Hex-E2 (cx8522; SEQ ID NO:165 linked to an Fc)), Siglec8-VHH-Fc antibodies linked to a reduced effector function xELL human Fc region via linker 2. The bivalent (Bi-B12 (cx8982), Bi-D1 (cx8983) and Bi-E2 (cx8984)), tetravalent, and hexavalent Siglec8-VHH-Fc antibodies were assessed by flow cytometry for binding to eosinophils (CD16⁻ CCR3⁺). Cells were isolated from whole blood by centrifugation, washed twice with 2% FBS PBS, and resuspended in 1×RBC lysis buffer for 10 minutes at room temperature (RT), washed once in 2% FBS PBS and treated with a second RBC lysis step and washed twice with 2% FBS. Cells were seeded at 200 k/well and resuspended in Human FC block for 10 minutes at RT. Cells were spun down and then resuspended in titrated test articles starting at 200 nM 1:4 and incubated for 30 minutes at 4° C. before being washed twice and resuspended in secondary mixture (2*; anti-CCR3 FITC, anti-human AF647, PI, anti-CD16 BV605) and incubated for 30 minutes at 4° C., washed twice, and bound antibodies were detected via flow cytometry (Novocyte).
As shown in FIG. 2A-2C, bivalent, tetravalent, and hexavalent Siglec8-VHH-Fc antibodies B12 (FIG. 2A), D1 (FIG. 2B) and E2 (FIG. 2C) bound to eosinophils. The calculated affinity was similar between the bivalent, tetravalent, and hexavalent hzSiglec8-VHH-Fc antibodies. The observed Bmax was reduced with increasing valency as anticipated, due the fact that the Fc portion of the antibody was detected in this assay and the ratio of Fc regions to anti-Siglec-8 binding domains is inverse to valency. No binding was observed on other granulocyte populations (CD16⁺ CCR3⁻).

[3] = target: T1, human Siglec-8 (full-length, on …); test: flow cytometry on CHO cells transiently transfected with full-length human Siglec-8; A647 anti-human Fc-gamma secondary; Mean RL1-H
Protocol: as §1, §2

[4] = target: T1, human Siglec-8 (full-length, on …); test: flow cytometry on 293 cells transiently transfected with full-length human Siglec-8; A647 anti-human Fc-gamma secondary; median fluorescence, nonlinear fit; table under the graph
Protocol: (§3) The binding of the lmG2 and humanized versions (further including Siglec8 hzG2v14), formatted as monomeric VHH-hIgG1 fusions proteins using a non-dimerizing human IgG1 Fe variant region lacking a hinge Fe NNT, was assessed by flow cytometry using 293 cells that had been transiently transfected with full-length human Siglec-8 and detected with an anti-human AF647 secondary antibody. Binding specificity was assessed using untransfected 293 cells as a control. For the binding assays, Siglec-8 293 cells or untransformed 293 cells were seeded in a 96 well U-bottom plate with 50 k cells/well in FACS buffer and incubated at 4° C. with a titration of anti-Siglec8-VHH-NNT for 30 minutes. After washing, the plates were incubated with an A647-conjugated anti-human Fcγ specific secondary antibody diluted 1:10,000 in FACS buffer for 20 minutes at 4° C. The plates were washed, and binding was determined by flow cytometry quantitating anti-human A647 median fluorescent intensity. The maximum specific binding (Bmax) and affinity (Kd) for was determined from the flow cytometry binding data using a nonlinear fit model.

[5] = target: T1, human Siglec-8 (full-length, on …); test: flow cytometry on 293 cells transiently transfected with full-length human Siglec-8; A647 anti-human Fc-gamma secondary; median fluorescence, nonlinear fit; table under the graph (Kd column without unit, concentration axis nM Ab)
Protocol: as §3

[6] = target: T1, human Siglec-8 (full-length, on …); test: as above; remark: listed apart in the source
Protocol: as §3

T1 sequence (Q9NYZ4 17-499): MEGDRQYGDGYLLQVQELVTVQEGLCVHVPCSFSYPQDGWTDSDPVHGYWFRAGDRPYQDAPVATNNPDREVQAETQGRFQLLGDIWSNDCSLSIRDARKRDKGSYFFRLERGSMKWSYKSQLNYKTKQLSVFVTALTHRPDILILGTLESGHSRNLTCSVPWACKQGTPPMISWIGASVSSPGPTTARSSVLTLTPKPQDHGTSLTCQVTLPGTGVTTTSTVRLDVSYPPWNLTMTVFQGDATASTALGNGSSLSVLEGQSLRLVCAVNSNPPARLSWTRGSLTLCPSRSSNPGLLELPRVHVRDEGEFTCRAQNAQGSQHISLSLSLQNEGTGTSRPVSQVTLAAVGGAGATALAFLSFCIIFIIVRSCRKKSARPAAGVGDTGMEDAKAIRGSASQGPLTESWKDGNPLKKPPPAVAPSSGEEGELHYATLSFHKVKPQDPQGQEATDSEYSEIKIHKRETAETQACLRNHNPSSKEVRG

- Kd [1]: 367 pM
- EC50 (read off the curve) [2]: ~100 pM
- EC50 (read off the curve) [3]: ~400 pM
B1: anti-Siglec8-B12-xELL, bivalent VHH-hIgG1-xELL-Fc (Fc fusion)
chain: QVQVVESGGGLVQPGGSLRLSCAASGSTSLLNAMAWYRQAPGKERELVAAISSGGGTYYADSVKGRFTISTNNAKNTLYLQMNSLKPEDTAMYYCAPGPNYSDYEEINWGQGTQVTVKPGGGGDKTHTCPPCPAPGGPSVFLFPPKPKDTLMISRTPEVTCVVVDVSHEDPEVKFNWYVDGVEVHNAKTKPREEQYNSTYRVVSVLTVLHQDWLNGKEYKCKVSNKALPAPIEKTISKAKGQPREPQVYTLPPSRDELTKNQVSLTCLVKGFYPSDIAVEWESNGQPENNYKTTPPVLDSDGSFFLYSKLTVDKSRWQQGNVFSCSVMHEALHNHYTQKSLSLSPGK
notes: Homodimer through the Fc; also called cx8982; Bi-B12

- Bmax [4]: 1.17e+06 Median (anti-human A647)
- Kd [5]: 146 pM
B2: Siglec8 hzG2v17, monomeric VHH-hIgG1 fusion (Fc NNT) (Fc fusion)
chain: EVQLLESGGGEVQPGGSLRLSCAASGSISIFSIYVVAWYRQAPGKEREWVAFIQRGGTANYAESAKGRFTISRDNAKNTVYLQMSSLRAEDTAVYYCNYINSDNEIGGPWGQGTLVTVKP
notes: Monomeric format; not shown: non-dimerizing human IgG1 Fc variant lacking a hinge (Fc NNT)

- Kd [5]: 91.2 pM
B3: Siglec8 hzG2v25, monomeric VHH-hIgG1 fusion (Fc NNT) (Fc fusion)
chain: EVQLLESGGGLVQTGGSLRLSCAASGSISIFSMYVVAWYRQAPGKQREWVAFIQRGGTANYAESAKGRFTISRDNAKNTVYLQMSSLRAEDTAVYYCNYINSDNEIGGPWGQGTLVTVKP
notes: as for B2

- Bmax [4]: 1.1e+06 Median (anti-human A647)
- Kd [5]: 256000 pM
B4: hzG2v21 (Fc fusion)
VHH: EVQLLESGGGEVQPGGSLRLSCAASGSISIFSSYAMSWYRQAPGKEREWVAFIQRGGTANYAESAKGRFTISRDNAKNTVYLQMSSLRAEDTAVYYCNYINSDNEIGGPWGQGTLVTVKP
notes: also called Siglec8 hzG2v21; monomeric VHH-hIgG1 fusion (Fc NNT); not shown: The non-dimerizing, hinge-less human IgG1 Fc variant (Fc NNT) and any linker to it

- Kd [6]: 96.6 pM
B5: Siglec8 hzG2v28, monomeric VHH-hIgG1 fusion (Fc NNT) (Fc fusion)
chain: EVQLLESGGGEVQTGGSLRLSCAASGSISIFSMYVVAWYRQAPGKQREWVAFIQRGGTANYAESAKGRFTISRDNAKNTVYLQMSSLRAEDTAVYYCNYINSDNEIGGPWGQGTLVTVKP
notes: as for B2

- Bmax [4]: 1.24e+06 Median (anti-human A647)
- Kd [5]: 41900 pM
B6: hzG2v19 (Fc fusion)
VHH: EVQLLESGGGEVQPGGSLRLSCAASGSISIFSSYAVAWYRQAPGKEREWVAFIQRGGTANYAESAKGRFTISRDNAKNTVYLQMSSLRAEDTAVYYCNYINSDNEIGGPWGQGTLVTVKP
notes: also called Siglec8 hzG2v19; monomeric VHH-hIgG1 fusion (Fc NNT); not shown: The non-dimerizing, hinge-less human IgG1 Fc variant (Fc NNT) and any linker to it

- Kd [6]: 124 pM
B7: Siglec8 hzG2v30, monomeric VHH-hIgG1 fusion (Fc NNT) (Fc fusion)
chain: EVQLLESGGGLVRTGGSLRLSCAASGSISIFSMYVVAWYRQAPGKQREWVAFIQRGGTANYAESAKGRFTISRDNAKNTVYLQMSSLRAEDTAVYYCNYINSDNEIGGPWGQGTLVTVKP
notes: as for B2

- Bmax [4]: 1.05e+06 Median (anti-human A647)
- Kd [5]: 263 pM
B8: Siglec8 hzG2v18, monomeric VHH-hIgG1 fusion (Fc NNT) (Fc fusion)
chain: EVQLLESGGGEVQPGGSLRLSCAASGSISIFSKYVVAWYRQAPGKEREWVAFIQRGGTANYAESAKGRFTISRDNAKNTVYLQMSSLRAEDTAVYYCNYINSDNEIGGPWGQGTLVTVKP
notes: as for B2

- Kd [5]: 151 pM
B9: Siglec8 hzG2v26, monomeric VHH-hIgG1 fusion (Fc NNT) (Fc fusion)
chain: EVQLLESGGGLVRPGGSLRLSCAASGSISIFSMYVVAWYRQAPGKQREWVAFIQRGGTANYAESAKGRFTISRDNAKNTVYLQMSSLRAEDTAVYYCNYINSDNEIGGPWGQGTLVTVKP
notes: as for B2

- Kd [6]: 111 pM
B10: Siglec8 hzG2v29, monomeric VHH-hIgG1 fusion (Fc NNT) (Fc fusion)
chain: EVQLLESGGGEVRPGGSLRLSCAASGSISIFSMYVVAWYRQAPGKQREWVAFIQRGGTANYAESAKGRFTISRDNAKNTVYLQMSSLRAEDTAVYYCNYINSDNEIGGPWGQGTLVTVKP
notes: as for B2

- binding result [2]: binds
B11: Hex-E2, hexavalent Siglec8-VHH-Fc (xELL) (Fc fusion)
chain: QVQLVESGGGLVQPGGSLRLSCATSGIIFTSNVINWYRQAPGKQREFVAFITSITSGQSTMYADAVKGRFTVSRDNDKNIGYLQMTSLQPEDTARYVCNVGAYWGQGTQVTVKPGGSGGSQVQLVESGGGLVQPGGSLRLSCATSGIIFTSNVINWYRQAPGKQREFVAFITSITSGQSTMYADAVKGRFTVSRDNDKNIGYLQMTSLQPEDTARYVCNVGAYWGQGTQVTVKPGGSGGSQVQLVESGGGLVQPGGSLRLSCATSGIIFTSNVINWYRQAPGKQREFVAFITSITSGQSTMYADAVKGRFTVSRDNDKNIGYLQMTSLQPEDTARYVCNVGAYWGQGTQVTVKPGGGGDKTHTCPPCPAPGGPSVFLFPPKPKDTLMISRTPEVTCVVVDVSHEDPEVKFNWYVDGVEVHNAKTKPREEQYNSTYRVVSVLTVLHQDWLNGKEYKCKVSNKALPAPIEKTISKAKGQPREPQVYTLPPSRDELTKNQVSLTCLVKGFYPSDIAVEWESNGQPENNYKTTPPVLDSDGSFFLYSKLTVDKSRWQQGNVFSCSVMHEALHNHYTQKSLSLSPGK
notes: Homodimer through the Fc; also called cx8522

- Kd [1]: 268 pM
- EC50 (read off the curve) [3]: ~300 pM
B12: anti-Siglec8-G2-xELL, bivalent VHH-hIgG1-xELL-Fc (Fc fusion)
chain: QVTLKESGGGLVRTGGSLRLSCAASGSISIFSMYVVAWYRQAPGKQREWVAFIQRGGTANYADSAKGRFTISRDNAKNTVYLQMASLKPDDTAVYYCNYINSDNEIGGPWGQGTQVTVKPGGGGDKTHTCPPCPAPGGPSVFLFPPKPKDTLMISRTPEVTCVVVDVSHEDPEVKFNWYVDGVEVHNAKTKPREEQYNSTYRVVSVLTVLHQDWLNGKEYKCKVSNKALPAPIEKTISKAKGQPREPQVYTLPPSRDELTKNQVSLTCLVKGFYPSDIAVEWESNGQPENNYKTTPPVLDSDGSFFLYSKLTVDKSRWQQGNVFSCSVMHEALHNHYTQKSLSLSPGK
notes: Homodimer through the Fc; also called cx10382

- Kd [1]: 427 pM
- EC50 (read off the curve) [2]: ~60 pM
- EC50 (read off the curve) [3]: ~500 pM
B13: anti-Siglec8-D1-xELL, bivalent VHH-hIgG1-xELL-Fc (Fc fusion)
chain: QVQLVESGGGLVQPGGSLRLSCAASGSIASIHGMGWYRQAPGKERELVAAIAGEGSTYYADSVKGRFTISRDFAKNTLYLQMNNLKAEDTAMYYCANNDERDDYWGQGTQVTVKPGGGGDKTHTCPPCPAPGGPSVFLFPPKPKDTLMISRTPEVTCVVVDVSHEDPEVKFNWYVDGVEVHNAKTKPREEQYNSTYRVVSVLTVLHQDWLNGKEYKCKVSNKALPAPIEKTISKAKGQPREPQVYTLPPSRDELTKNQVSLTCLVKGFYPSDIAVEWESNGQPENNYKTTPPVLDSDGSFFLYSKLTVDKSRWQQGNVFSCSVMHEALHNHYTQKSLSLSPGK
notes: Homodimer through the Fc; also called cx8983; Bi-D1

From patent publication US20250042997A1 (PHYLAXIS BIOSCIENCE, published 2025)
